Experimental findings from patent publication US20220372142A1 (IGM BIOSCIENCES, published 2022) are described below.

For assay [1], the target named is T1, CD20 (UniProt P11836 1-297, limits assumed).
T1 sequence (looked up): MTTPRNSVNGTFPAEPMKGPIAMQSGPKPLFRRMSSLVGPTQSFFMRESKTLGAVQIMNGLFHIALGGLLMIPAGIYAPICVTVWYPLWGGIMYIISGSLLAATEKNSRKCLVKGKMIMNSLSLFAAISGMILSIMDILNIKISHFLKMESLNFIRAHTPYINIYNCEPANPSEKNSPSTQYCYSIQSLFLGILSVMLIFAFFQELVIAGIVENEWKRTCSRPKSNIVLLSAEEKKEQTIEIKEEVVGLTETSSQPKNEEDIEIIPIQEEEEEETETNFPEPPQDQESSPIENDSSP
The experiment in a line: cell-based or functional assay.

Assay [2] has as its target T1, CD20. The assay is described as follows: flow cytometry on Ramos cells, anti-human kappa AF647 detection.
Method: The cells were split every 2-3 days as necessary to maintain the cell density between 0.2-2.0×10⁶ cells/mL. […] The antibody cell mixtures were incubated for 30 minutes on ice in the dark. […] Fluorescent staining data was acquired on FACSCalibur using standard settings and analyzed with FloJo 10. Mean fluorescent intensity (MFI) values were imported into GraphPad Prism, and EC50 or KD values were calculated from the resulting curve fit.

B1: RTX-IgM V15J (wt) (bispecific antibody)
VH: QVQLQQPGAELVKPGASVKMSCKASGYTFTSYNMHWVKQTPGRGLEWIGAIYPGNGDTSYNQKFKGKATLTADKSSSTAYMQLSSLTSEDSAVYYCARSTYYGGDWYFNVWGAGTTVTVSA
VL: QIVLSQSPAILSASPGEKVTMTCRASSSVSYIHWFQQKPGSSPKPWIYATSNLASGVPVRFSGSGSGTSYSLTISRVEAEDAATYYCQQWTSNPPTFGGGTKLEIKR
chain: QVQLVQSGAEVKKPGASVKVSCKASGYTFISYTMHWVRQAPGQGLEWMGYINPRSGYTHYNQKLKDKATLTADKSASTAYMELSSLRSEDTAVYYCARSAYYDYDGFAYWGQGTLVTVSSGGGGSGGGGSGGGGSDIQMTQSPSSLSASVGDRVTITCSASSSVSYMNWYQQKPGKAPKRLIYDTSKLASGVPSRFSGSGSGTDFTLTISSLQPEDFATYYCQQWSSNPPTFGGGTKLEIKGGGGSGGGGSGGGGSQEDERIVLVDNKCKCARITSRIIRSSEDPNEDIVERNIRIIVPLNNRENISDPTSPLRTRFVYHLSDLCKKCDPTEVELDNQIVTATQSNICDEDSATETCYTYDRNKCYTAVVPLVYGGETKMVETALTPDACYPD
In the case of B1, in the assay with CD20 [1], the “TDCC on CA46 cells with CD8+ T cells, EC50” value was 0.014 nM; the “TDCC on Ramos cells with CD8+ T cells, % Max.” value (shortened to “TDCC on Ramos cells … % Max.”) was found to be 98%; the “TDCC on Ramos cells with CD8+ T cells, EC50” value (“TDCC on Ramos cells … EC50” below) amounted to 0.009 nM; the “TDCC on normal B cells with CD8+ T cells, EC50” value worked out at 0.009 nM.

B2: RTX-IgM V15J (N93D) (bispecific antibody)
VH: QVQLQQPGAELVKPGASVKMSCKASGYTFTSYNMHWVKQTPGRGLEWIGAIYPGNGDTSYNQKFKGKATLTADKSSSTAYMQLSSLTSEDSAVYYCARSTYYGGDWYFNVWGAGTTVTVSA
VL: QIVLSQSPAILSASPGEKVTMTCRASSSVSYIHWFQQKPGSSPKPWIYATSNLASGVPVRFSGSGSGTSYSLTISRVEAEDAATYYCQQWTSDPPTFGGGTKLEIKR
chain: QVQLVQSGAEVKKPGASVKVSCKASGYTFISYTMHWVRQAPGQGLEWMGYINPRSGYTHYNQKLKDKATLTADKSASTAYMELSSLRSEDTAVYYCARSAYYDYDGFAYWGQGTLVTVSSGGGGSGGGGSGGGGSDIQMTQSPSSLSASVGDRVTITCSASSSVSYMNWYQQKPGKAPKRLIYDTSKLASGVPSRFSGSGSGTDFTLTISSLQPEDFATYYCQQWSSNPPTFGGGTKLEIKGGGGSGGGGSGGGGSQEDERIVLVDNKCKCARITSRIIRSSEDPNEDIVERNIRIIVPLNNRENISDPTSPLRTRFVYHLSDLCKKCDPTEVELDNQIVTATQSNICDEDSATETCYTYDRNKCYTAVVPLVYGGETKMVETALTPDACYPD
On to B2, for which, in the assay with CD20 [1], the “TDCC on Ramos cells … % Max.” value amounted to 60% and the “TDCC on Ramos cells … EC50” value came out at 0.722 nM.

B3: RTX-IgM V15J (N93E) (bispecific antibody)
VH: QVQLQQPGAELVKPGASVKMSCKASGYTFTSYNMHWVKQTPGRGLEWIGAIYPGNGDTSYNQKFKGKATLTADKSSSTAYMQLSSLTSEDSAVYYCARSTYYGGDWYFNVWGAGTTVTVSA
VL: QIVLSQSPAILSASPGEKVTMTCRASSSVSYIHWFQQKPGSSPKPWIYATSNLASGVPVRFSGSGSGTSYSLTISRVEAEDAATYYCQQWTSEPPTFGGGTKLEIKR
chain: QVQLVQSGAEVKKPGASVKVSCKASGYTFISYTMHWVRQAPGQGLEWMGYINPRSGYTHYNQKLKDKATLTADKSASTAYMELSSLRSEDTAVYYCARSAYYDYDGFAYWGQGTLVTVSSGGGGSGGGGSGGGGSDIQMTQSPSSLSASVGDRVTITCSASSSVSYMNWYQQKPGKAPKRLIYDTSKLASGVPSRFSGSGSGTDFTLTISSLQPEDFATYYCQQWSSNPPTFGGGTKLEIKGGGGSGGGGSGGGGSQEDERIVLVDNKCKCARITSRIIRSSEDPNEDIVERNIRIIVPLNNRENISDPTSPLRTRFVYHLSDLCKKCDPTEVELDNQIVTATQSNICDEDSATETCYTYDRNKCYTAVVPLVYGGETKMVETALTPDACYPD
B3: in the assay with CD20 [1], the “TDCC on Ramos cells … % Max.” value was 80%; the “TDCC on Ramos cells … EC50” value was determined as 0.107 nM; the “TDCC on normal B cells with CD8+ T cells, EC50” value was determined as 0.145 nM.

B4: RTX-IgM + J N93K (antibody)
VH: QVQLQQPGAELVKPGASVKMSCKASGYTFTSYNMHWVKQTPGRGLEWIGAIYPGNGDTSYNQKFKGKATLTADKSSSTAYMQLSSLTSEDSAVYYCARSTYYGGDWYFNVWGAGTTVTVSA
VL: QIVLSQSPAILSASPGEKVTMTCRASSSVSYIHWFQQKPGSSPKPWIYATSNLASGVPVRFSGSGSGTSYSLTISRVEAEDAATYYCQQWTSKPPTFGGGTKLEIKR
chain: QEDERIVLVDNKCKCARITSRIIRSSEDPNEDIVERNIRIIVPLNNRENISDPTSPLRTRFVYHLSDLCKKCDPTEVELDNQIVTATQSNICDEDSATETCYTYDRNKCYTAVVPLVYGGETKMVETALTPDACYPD
notes: Pentameric IgM with wild-type J-chain; IgM constant region of the construct not specified
B4: the concentration giving a half-maximal response (EC50) in the assay with CD20 [2] was 0.88 nM.

B5: RTX-IgM + J N93R (antibody)
VH: QVQLQQPGAELVKPGASVKMSCKASGYTFTSYNMHWVKQTPGRGLEWIGAIYPGNGDTSYNQKFKGKATLTADKSSSTAYMQLSSLTSEDSAVYYCARSTYYGGDWYFNVWGAGTTVTVSA
VL: QIVLSQSPAILSASPGEKVTMTCRASSSVSYIHWFQQKPGSSPKPWIYATSNLASGVPVRFSGSGSGTSYSLTISRVEAEDAATYYCQQWTSRPPTFGGGTKLEIKR
chain: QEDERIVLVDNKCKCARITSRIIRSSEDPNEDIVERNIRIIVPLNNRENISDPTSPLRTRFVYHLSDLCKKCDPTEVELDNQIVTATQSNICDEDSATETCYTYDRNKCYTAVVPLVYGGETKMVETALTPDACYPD
notes: as for B4
With B5, the response with CD20 [2] was half-maximal at 0.52 nM (EC50).

B6: RTX-IgM + J N93A (antibody)
VH: QVQLQQPGAELVKPGASVKMSCKASGYTFTSYNMHWVKQTPGRGLEWIGAIYPGNGDTSYNQKFKGKATLTADKSSSTAYMQLSSLTSEDSAVYYCARSTYYGGDWYFNVWGAGTTVTVSA
VL: QIVLSQSPAILSASPGEKVTMTCRASSSVSYIHWFQQKPGSSPKPWIYATSNLASGVPVRFSGSGSGTSYSLTISRVEAEDAATYYCQQWTSAPPTFGGGTKLEIKR
chain: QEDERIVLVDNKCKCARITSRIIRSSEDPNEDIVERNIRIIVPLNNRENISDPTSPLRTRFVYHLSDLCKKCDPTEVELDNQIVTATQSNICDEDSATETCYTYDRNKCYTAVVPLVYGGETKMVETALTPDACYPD
notes: as for B4
Regarding B6, the EC50 in the assay with CD20 [2] turned out to be 0.69 nM.
